The assay deals with MC1-R (melanocyte-stimulating hormone receptor). The assay can be described thus: inhibition of MC1-R activation by the purified recombinant ASP preparation; assay details not given (Ollmann et al., in preparation).

pKi: −log10 of the molar value.

The term pKi denotes −log10 of the Ki, conventionally taken in molar units. In the case of “Recombinant mouse agouti signal protein (ASP) (ligand)”, the pKi is 9.66.

Values taken from patent publication EP0833843B1.
